This note sets out measurements from patent US20210230599, “STEM-LOOP COMPOSITIONS AND METHODS FOR INHIBITING INTERLEUKIN-8” (VITRISA THERAPEUTICS, INC., published 2021).

For data set [1], the target named is T1, Interleukin-8 (IL8, CXCL8), C-terminal His-tagged (Homo sapiens, UniProt P10145 SEQ:1-72). Nature of the data set: TR-FRET; bead flow 20 nM. The following applies: tags: C-terminal 6xHis (Sino Biological); label: Alexa Fluor 647. On the procedure: (§1) Aptamers were synthesized and labeled with ALEXA FLUOR® 647, and binding to IL8 was quantified by Time-Resolved Fluorescence Resonance Energy Transfer (TR-FRET). Briefly, 2-fold dilutions of thermally equilibrated aptamers were made in TR-FRET Buffer (50 mM MOPS, pH 7.4, 125 mM NaCl, 5 mM KCl, 50 μM CHAPS, 0.1 mg/mL BSA, 1 mM CaCl₂ and 1 mM MgCl₂). […] of aptamer or control solution was added to 10 μL of 15 nM C-His-tagged-IL8 (Sino Biological) in a black wall half-area plate (Corning). In the same plate, 10 μl of aptamer solution was added to 10 μl of TR-FRET buffer alone to use for background subtraction. 10 μl of 15 nM anti-His-Eu (Perkin Elmer) was added to each well, the plate was covered with a plate seal and subsequently incubated in the dark for 1 hour at room temperature. The plate was read on a Biotek CYTATION™ 5 plate reader. Samples were excited at 330 nm and fluorescent values were collected at 665 nm. […] Apparent Kd values obtained for the fits are calculated as the concentration of half-maximal binding and shown in Table 10, and fit curves as FIG. 6. […] It is also possible that differences may arise due to TR-FRET being a homogenous solution binding assay, while bead binding has immobilized ligand and is non-homogenous, so bound aptamers may dissociate during analysis resulting in higher calculated Kd values.
(In TR-FRET formats the signal depends on donor and acceptor labels being close together.)

For data set [2], the target named is T1, Interleukin-8 (IL8, CXCL8), C-terminal …. Nature of the data set: flow; appreciable binding, bead-immobilized IL8, 10 and 100 nM aptamer. The following applies: tags: C-terminal 6xHis (Sino Biological); label: Alexa Fluor 647. Here is the method:
(§2) Chemically synthesized aptamers (Table 8) were labeled with ALEXA FLUOR® 647 and were used to test binding to IL8 in a bead based assay using flow cytometry. In brief, fluorescently labeled aptamers were heated at 90° C. for 3 minutes in SB1T and were allowed to cool at room temperature for 5 minutes, after which they were incubated with c-his-IL8, immobilized on DYNABEADS® His-Tag Isolation and Pulldown beads in SB1T buffer containing 0.1% BSA, 1 μg/μl ssDNA and 1 μg/μl heparin sulphate at two different aptamer concentrations: 10 nM and 100 nM. Following incubation for 30 minutes at 37° C., the beads were washed three times with SB1T, re-suspended in SB1T buffer and analyzed by flow cytometry. […] Negligible or complete lack of binding seen in cases of some aptamers (e.g., Aptamers 4, 9, 10, and 16) could be due to the removal of the constant regions. No binding was observed when similar experiments were performed in the absence of protein (data not shown).

The target is the same in data set [3]. The experiment in a line: TR-FRET, 5 nM IL8, protein-limited; bead flow 18 nM. As to conditions: tags: C-terminal 6xHis (Sino Biological); label: Alexa Fluor 647. Here is the method:
as §1

For data set [4] the target is unchanged. The experiment in a line: TR-FRET, 5 nM IL8, protein-limited; bead flow 13 nM. As to conditions: tags: C-terminal 6xHis (Sino Biological); label: Alexa Fluor 647. Here is the method: as §1
Data set [5] shares this target. Nature of the data set: TR-FRET; bead flow 7 nM. The following applies: tags: C-terminal 6xHis (Sino Biological); label: Alexa Fluor 647. Here is the method: as §1
Data set [6] has the same target. Nature of the data set: TR-FRET; GAG-site binder, displaced by heparan sulfate IC50 9 uM. The following applies: tags: C-terminal 6xHis (Sino Biological); label: Alexa Fluor 647. From the text: Differences between these TR-FRET values (Table 10) and those from the bead binding assay (Table 9) may be due to a different limiting concentration of IL8. […] It is also possible that differences may arise due to TR-FRET being a homogenous solution binding assay, while bead binding has immobilized ligand and is non-homogenous, so bound aptamers may dissociate during analysis resulting in higher calculated Kd values.
Aptamer 1 (C6NH₂-[…]-idT, where C and U are 2′F, A and G are 2′OH; C6NH₂ is a hexylamino linker; and idT is a 3′ inverted deoxythymidine residue (SEQ ID NO: 75 with modifications)) was used as a positive control for an aptamer that binds to the GAG binding site. Aptamers 1, 3, 6, 8 and 11 were labeled with ALEXAFLUOR® 647 as described in Example 3. […] Briefly, 2-fold dilutions of heparan sulfate (Sigma Aldrich) were made in TR-FRET Buffer (50 mM MOPS, pH 7.4, 125 mM NaCl, 5 mM KCl, 50 μM CHAPS, 0.1 mg/mL BSA, 1 mM CaCl₂ and 1 mM MgCl₂). […] heparan sulfate or control solution were added to […] a mixture of 10 nM C-His-tagged-IL8 (Sino Biological), 5 nM anti-His-Eu (Perkin Elmer), and 30 nM AlexaFluor® 647-labeled aptamer in TR-FRET in a black low volume 384-well plate (Greiner). The plate was covered with a plate seal and subsequently incubated in the dark for 1 hour at room temperature. The plate was read on a Biotek CYTATION™ 5 plate reader. […]

Data set [7] has the same target. The experiment in a line: competition; competition TR-FRET; S3 mutant. The following applies: tags: C-terminal 6xHis (Sino Biological). Here is the method: (§3) To better understand the sequence requirements and to confirm the stem structures of members of the Aptamer 3 family as determined from sequence covariation analysis from both the primary and secondary (degenerate) selections, a series of variants which included mutations and deletions to the predicted stems were synthesized and screened (Table 24). Activity of each of these variants were tested using a time resolved competition TR-FRET assay in which the labeled parent Aptamer 3 was competed with increasing concentrations of unlabeled variants for binding to IL8 (FIG. 14). Briefly, 2-fold dilutions of thermally equilibrated aptamers were made in TR-FRET Buffer (50 mM MOPS, pH 7.4, 125 mM NaCl, 5 mM KCl, 50 μM CHAPS, 0.1 mg/mL BSA, 1 mM CaCl₂, and 1 mM MgCl₂). 5 μL of aptamer or control solution was added to 5 μl mix of 10 nM C-terminal His-tagged-IL8, 60 nM ALEXA FLUOR® 647-labeled Aptamer, and 5 nM anti-His-Eu (Perkin Elmer) in a black wall low volume 384 well plate (Greiner). For control, 5 μl of 1000-fold excess of unlabeled parent aptamer or 5 μl TR-FRET buffer alone was added to the mix of ALEXA FLUOR® 647-labeled aptamer, His-IL8, and anti-His-Eu. The plate was covered with a plate seal and subsequently incubated in the dark for 1 hour at room temperature. The plate was read on a Biotek CYTATION™ 5 plate reader. […]

The target is the same in data set [8]. Nature of the data set: competition; competition TR-FRET; S3 extended. The following applies: tags: C-terminal 6xHis (Sino Biological). On the procedure: as §3
Data set [9] has the same target. Nature of the data set: TR-FRET; bead flow 16 nM. The following applies: tags: C-terminal 6xHis (Sino Biological); label: Alexa Fluor 647; stem-loop (Aptamer 3 family). On the procedure: as §1
The target is the same in data set [10]. Nature of the data set: TR-FRET; bead flow 19 nM. The following applies: tags: C-terminal 6xHis (Sino Biological); label: Alexa Fluor 647. On the procedure:
as §1

The target is the same in data set [11]. Nature of the data set: TR-FRET, 5 nM IL8, protein-limited. The following applies: tags: C-terminal 6xHis (Sino Biological); label: Alexa Fluor 647.
Data set [12] has the same target. Nature of the data set: TR-FRET, 500 pM IL8; Table 10 gives 2 nM; bead flow 13 nM. As to conditions: tags: C-terminal 6xHis (Sino Biological); label: Alexa Fluor 647; stem-loop (3 stems, 4 loops). Here is the method: Under these assay conditions, the ability to measure the affinity accurately is limited by the input IL8 protein concentration, and the apparent Kd under these protein-limiting conditions was determined to be 8 nM.

For data set [13] the target is unchanged. Nature of the data set: competition; competition TR-FRET; S2 disrupted. As to conditions: tags: C-terminal 6xHis (Sino Biological). On the procedure:
as §3

For data set [14] the target is unchanged. The experiment in a line: competition; competition TR-FRET. The following applies: tags: C-terminal 6xHis (Sino Biological); stem-loop.
Data set [15] has the same target. The experiment in a line: flow; bead-immobilized IL8, 37 C. The following applies: tags: C-terminal 6xHis (Sino Biological); label: Alexa Fluor 647. Here is the method:
as §2
Flow cytometry was used to measure the apparent binding affinity for Aptamer 2, Aptamer 3, Aptamer 5, Aptamer 6, Aptamer 8, Aptamer 11, Aptamer 12, Aptamer 13, Aptamer 14, Aptamer 20, Aptamer 22, Aptamer 23, and Aptamer 25 using bead immobilized c-his-IL8. […] Following incubation for 30 minutes at 37° C., the beads were washed and fluorescence was measured by flow cytometry. […]

One may read the Kd as the equilibrium constant for the complex coming apart.

B1: Aptamer 5 (ssRNA)
RNA: UCGUGAAGGGCGAUUCUGGUGCGUGUUCCCUCGCGU
modifications: 2'-F G, 2'-OMe A/C/U, 5' C6NH2, 3' idT
Turning to B1, binding in data set [1] was put at a Kd of 10 nM. This lies in the double-digit nanomolar range.

B2: Aptamer 25 (ssRNA)
RNA: UCAUGGGUUGCCAACCGGCCGUGUAUGUACGUACAU
modifications: 2'-F G, 2'-OMe A/C/U, 5' C6NH2, 3' idT
Consider B2, for which the binding result in data set [2] is recorded as “binds”.

B3: Aptamer 6 (ssRNA)
RNA: UCAGGCUGAAAAGUGAGCUAUAAUGUCCUGAUUGAU
modifications: 2'-F G, 2'-OMe A/C/U, 5' C6NH2, 3' idT
Molecule B3 registered a Kd in data set [3] of 2 nM.

B4: Aptamer 11 (ssRNA)
RNA: UCCGGUUGCUGAGAUGUGAGAUUAAUGUCCACCGUU
modifications: 2'-F G, 2'-OMe A/C/U, 5' C6NH2, 3' idT
In data set [4], B4 had a Kd of 2 nM.

B5: Aptamer 22 (ssRNA)
RNA: UCUGAAUCGGCUGAAACGGGAGCAUUAAUGUCCGGU
modifications: 2'-F G, 2'-OMe A/C/U, 5' C6NH2, 3' idT
In turn, B5 yielded an equilibrium dissociation constant (Kd) in data set [5] of 15 nM.

B6: Aptamer 1 (ssRNA)
RNA: GGGGGCUUAUCAUUCCAUUUAGUGUUAUGAUAACC
modifications: 2'-F C and U, 2'-OH A and G, 5' C6NH2, 3' idT
In data set [6], B6 showed a Kd of 3 nM.

B7: Aptamer 89 (ssRNA)
RNA: GGCGACGGUAGACUACGGGUAGAGUGACCGCGCC
modifications: 2'-F G, 2'-OMe A/C/U, 5' C6NH2, 3' idT
In data set [7], B7 gave a binding signal greater than 10 fold worse than Aptamer 3.

B8: Aptamer 90 (ssRNA)
RNA: GGCGACGGUAGAUCACGGGUAGGGUGACCGCGCC
modifications: 2'-F G, 2'-OMe A/C/U, 5' C6NH2, 3' idT
As for B8, the binding signal in [8] is greater than 10 fold worse than Aptamer 3.

B9: Aptamer 12 (ssRNA)
RNA: UUGGCCACAGUAGAUUUCGGUGCGUGUGACUGGGCU
modifications: 2'-F G, 2'-OMe A/C/U, 5' C6NH2, 3' idT
For B9, binding in [9] was characterised by a dissociation constant (Kd) of 12 nM. This lies in the double-digit nanomolar range.

B10: Aptamer 24 (ssRNA)
RNA: UUGCCCUUUGAUCGUACCGAGGCGGGGAAGUACGAU
modifications: 2'-F G, 2'-OMe A/C/U, 5' C6NH2, 3' idT
In turn, B10 had a dissociation constant Kd in data set [10] of 9 nM.

B11: Aptamer 7 (ssRNA)
RNA: UUAUUGCGGCCCGAUUUACCGAAUUUGCCGUCCGGU
modifications: 2'-F G, 2'-OMe A/C/U, 5' C6NH2, 3' idT
For B11, in [11], binding was characterised by a dissociation constant (Kd) of 2 nM. This counts as single-digit nanomolar.

B12: Aptamer 3 (ssRNA)
RNA: UGAUGACGGUAGAUUACGGGUAGAGUGACCGCAUCU
modifications: 2'-F G, 2'-OMe A/C/U, 5' C6NH2, 3' idT
Consider B12, for which the equilibrium dissociation constant (Kd) in data set [12] stood at 0.214 nM.

B13: Aptamer 188 (ssRNA)
RNA: UGAUGACCCUAGAUUACGGGUAGAGUGACCGCAUCU
modifications: 2'-F G, 2'-OMe A/C/U, 5' C6NH2, 3' idT
As for B13, the binding signal in data set [13] is greater than 10 fold worse than Aptamer 3.

B14: Aptamer 42 (ssRNA)
RNA: GCGACGGUAGAUUACGGGUAGAGUGACCGCGC
modifications: 2'-F G, 2'-OMe A/C/U, 5' C6NH2, 3' idT
With B14, the binding signal in [14] was roughly 1.4 fold worse than Aptamer 3.

B15: Aptamer 20 (ssRNA)
RNA: UGACUGCGGUCGCAAGUUACGGAUUUGCCGCCCCGU
modifications: 2'-F G, 2'-OMe A/C/U, 5' C6NH2, 3' idT
B15 came in with a Kd in data set [15] of 15 nM.
